Measured values: PMC8580805 (Biophysical Reviews, 2021)
Where “and” joins values, the source holds several entries; their conditions need not be identical. Equal entries are not always repeated. Blank lines part the entries; values can stand above or below the molecule they belong to.

B3: photosynthetic GAPDH B-subunit from spinach (natural protein, UniProt P12860 84-451, looked up)
chain: KLKVAINGFGRIGRNFLRCWHGRKDSPLDVVVVNDSGGVKSATHLLKYDSILGTFKADVKIIDNETFSIDGKPIKVVSNRDPLKLPWAELGIDIVIEGTGVFVDGPGAGKHIQAGAKKVIITAPAKGSDIPTYVVGVNEKDYGHDVANIISNASCTTNCLAPFVKVLDEELGIVKGTMTTTHSYTGDQRLLDASHRDLRRARAAALNIVPTSTGAAKAVSLVLPQLKGKLNGIALRVPTPNVSVVDLVVNIEKVGVTAEDVNNAFRKAAAGPLKGVLDVCDIPLVSVDFRCSDFSSTIDSSLTMVMGGDMVKVVAWYDNEWGYSQRVVDLADLVANKWPGLEGSVASGDPLEDFCKDNPADEECKLYE

Tests used:
[1] = target: insect Toll receptor ectodomain (insect (species not stated)) (UniProt P08953); assay: biophysical and cellular analysis
[2] = target: the molecule itself; assay: SEC-SAXS + cryo-EM structure
[3] = target: B3; assay: cryo-EM structure
cryo-EM structure = target: the molecule itself; assay: cryo-EM structure

Chain of insect Toll receptor ectodomain (insect (species not stated)) (P08953 28-807): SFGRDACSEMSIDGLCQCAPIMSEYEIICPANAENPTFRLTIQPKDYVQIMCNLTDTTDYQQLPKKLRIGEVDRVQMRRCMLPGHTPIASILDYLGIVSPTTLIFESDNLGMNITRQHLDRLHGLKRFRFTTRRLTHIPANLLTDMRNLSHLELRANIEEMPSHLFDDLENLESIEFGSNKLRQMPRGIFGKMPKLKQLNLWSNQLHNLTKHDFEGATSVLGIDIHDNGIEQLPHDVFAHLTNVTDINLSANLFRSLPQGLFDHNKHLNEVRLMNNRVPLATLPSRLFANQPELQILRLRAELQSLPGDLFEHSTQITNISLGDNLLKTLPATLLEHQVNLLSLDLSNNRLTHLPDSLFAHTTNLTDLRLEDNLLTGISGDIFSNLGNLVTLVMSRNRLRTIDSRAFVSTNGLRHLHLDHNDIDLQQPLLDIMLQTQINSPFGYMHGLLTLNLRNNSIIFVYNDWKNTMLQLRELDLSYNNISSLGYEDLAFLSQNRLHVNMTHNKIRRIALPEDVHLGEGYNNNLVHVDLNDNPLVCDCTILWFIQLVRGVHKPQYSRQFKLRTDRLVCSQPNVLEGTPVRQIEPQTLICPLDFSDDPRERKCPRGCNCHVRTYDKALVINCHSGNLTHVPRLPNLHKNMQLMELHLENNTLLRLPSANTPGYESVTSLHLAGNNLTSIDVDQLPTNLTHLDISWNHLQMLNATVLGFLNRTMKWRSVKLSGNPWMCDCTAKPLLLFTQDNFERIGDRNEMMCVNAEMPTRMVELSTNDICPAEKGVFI

B1: photosynthetic AB-GAPDH, A2B2 hetero-tetramer (glyceraldehyde 3-phosphate dehydrogenase) from spinach (complex)
chain 1: KLKVAINGFGRIGRNFLRCWHGRKDSPLDVVVINDTGGVKQASHLLKYDSILGTFDADVKTAGDSAISVDGKVIKVVSDRNPVNLPWGDMGIDLVIEGTGVFVDRDGAGKHLQAGAKKVLITAPGKGDIPTYVVGVNEEGYTHADTIISNASCTTNCLAPFVKVLDQKFGIIKGTMTTTHSYTGDQRLLDASHRDLRRARAACLNIVPTSTGAAKAVALVLPNLKGKLNGIALRVPTPNVSVVDLVVQVSKKTFAEEVNAAFRESADNELKGILSVCDEPLVSIDFRCTDVSSTIDSSLTMVMGDDMVKVIAWYDNEWGYSQRVVDLADIVANKWQ
chain 2: KLKVAINGFGRIGRNFLRCWHGRKDSPLDVVVVNDSGGVKSATHLLKYDSILGTFKADVKIIDNETFSIDGKPIKVVSNRDPLKLPWAELGIDIVIEGTGVFVDGPGAGKHIQAGAKKVIITAPAKGSDIPTYVVGVNEKDYGHDVANIISNASCTTNCLAPFVKVLDEELGIVKGTMTTTHSYTGDQRLLDASHRDLRRARAAALNIVPTSTGAAKAVSLVLPQLKGKLNGIALRVPTPNVSVVDLVVNIEKVGVTAEDVNNAFRKAAAGPLKGVLDVCDIPLVSVDFRCSDFSSTIDSSLTMVMGGDMVKVVAWYDNEWGYSQRVVDLADLVANKWPGLEGSVASGDPLEDFCKDNPADEECKLYE
stoichiometry N [2]: 2 A2B2 tetramers per oligomer and 4 A2B2 tetramers per oligomer and 5 A2B2 tetramers per oligomer

Molecule: B3
binding result (cryo-EM structure): binds

Second part, the molecule after the results:

stoichiometry N (Toll per Spatzle (2:2)) [1]: 1
Molecule: insect cytokine ligand Spatzle (from UniProt P48607 26-326)

binding result [3]: binds
B2: photosynthetic GAPDH A-subunit from spinach (natural protein, UniProt P19866 66-401, looked up)
chain: KLKVAINGFGRIGRNFLRCWHGRKDSPLDVVVINDTGGVKQASHLLKYDSILGTFDADVKTAGDSAISVDGKVIKVVSDRNPVNLPWGDMGIDLVIEGTGVFVDRDGAGKHLQAGAKKVLITAPGKGDIPTYVVGVNEEGYTHADTIISNASCTTNCLAPFVKVLDQKFGIIKGTMTTTHSYTGDQRLLDASHRDLRRARAACLNIVPTSTGAAKAVALVLPNLKGKLNGIALRVPTPNVSVVDLVVQVSKKTFAEEVNAAFRESADNELKGILSVCDEPLVSIDFRCTDVSSTIDSSLTMVMGDDMVKVIAWYDNEWGYSQRVVDLADIVANKWQ
